The test concerns the target Aplysia californica acetylcholine binding protein (Aplysia californica). Description: cross-linking.

With “Aplysia californica acetylcholine binding protein (natural protein)”, the stoichiometry N amounted to 5.

As usually defined, the stoichiometry N is the number of molecules, sites or subunits per partner or assembly.

The record behind these values is PMC11157483.
